Results on one substance are retold here after patent US20220023406A1.

This assay deals with HB-EGF receptor for diptheria toxin/CRM197 (heparin-binding epidermal growth factor-like precursor) on OV90 ovarian cancer cells (UniProt Q99075). In words: cell-based or functional assay.
Sequence of UniProt Q99075 (Q99075 63-148 limits assumed): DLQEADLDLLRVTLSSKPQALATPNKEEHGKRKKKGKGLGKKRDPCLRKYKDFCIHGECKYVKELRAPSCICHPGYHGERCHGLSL

For the substance “CRM197-Alexa488 (from UniProt P00587 26-560)”, the labelling of OV90 tumor cells with CRM197-Alexa488 after 24 hours (flow cytometry, 10 µg/mL, without trypan blue) came out at 98.2%; the percentage of CRM197-Alexa488 uptake by OV90 tumor cells after 4 hours (flow cytometry, 10 µg/mL, without trypan blue) is 82%; the percentage of OV90 cells with intracellular CRM197-Alexa488 after 4 hours (flow cytometry, with trypan blue quenching) came out at 72.7%; the percentage of OV90 cells with intracellular CRM197-Alexa488 after 24 hours (flow cytometry, with trypan blue quenching) was found to be 97.6%.
